This is an account of results in PMC7035113 (Nature, 2020).

Assay [1] concerns the target T1, SA2-SCC1 complex (SA2 80-1060 in complex with SCC1 281-420) (human | , UniProt Q8N3U4;O60216).
T1 sequence 1: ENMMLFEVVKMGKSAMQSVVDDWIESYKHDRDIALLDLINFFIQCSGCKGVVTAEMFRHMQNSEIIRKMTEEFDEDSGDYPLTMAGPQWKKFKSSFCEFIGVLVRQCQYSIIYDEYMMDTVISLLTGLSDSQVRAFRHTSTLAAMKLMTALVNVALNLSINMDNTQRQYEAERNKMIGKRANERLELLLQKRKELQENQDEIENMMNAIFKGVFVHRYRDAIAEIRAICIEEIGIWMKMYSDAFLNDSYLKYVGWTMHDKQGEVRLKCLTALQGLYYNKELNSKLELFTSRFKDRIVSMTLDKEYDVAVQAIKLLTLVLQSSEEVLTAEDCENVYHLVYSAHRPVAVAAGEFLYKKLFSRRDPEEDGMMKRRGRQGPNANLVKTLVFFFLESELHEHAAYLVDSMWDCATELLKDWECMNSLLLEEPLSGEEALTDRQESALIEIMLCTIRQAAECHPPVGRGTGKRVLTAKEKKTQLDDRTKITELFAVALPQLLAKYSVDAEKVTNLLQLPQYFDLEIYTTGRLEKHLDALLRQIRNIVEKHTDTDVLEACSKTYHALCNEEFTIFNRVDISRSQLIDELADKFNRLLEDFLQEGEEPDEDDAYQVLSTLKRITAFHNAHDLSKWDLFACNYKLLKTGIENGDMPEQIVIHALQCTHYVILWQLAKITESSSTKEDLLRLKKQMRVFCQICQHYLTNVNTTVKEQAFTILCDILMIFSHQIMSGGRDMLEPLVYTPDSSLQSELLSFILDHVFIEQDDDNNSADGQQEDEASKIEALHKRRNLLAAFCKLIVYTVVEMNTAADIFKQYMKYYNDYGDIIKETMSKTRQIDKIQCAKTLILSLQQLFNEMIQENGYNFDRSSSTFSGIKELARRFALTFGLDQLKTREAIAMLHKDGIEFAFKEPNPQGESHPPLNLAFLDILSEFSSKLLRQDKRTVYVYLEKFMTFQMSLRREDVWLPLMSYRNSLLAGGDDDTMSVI
T1 sequence 2: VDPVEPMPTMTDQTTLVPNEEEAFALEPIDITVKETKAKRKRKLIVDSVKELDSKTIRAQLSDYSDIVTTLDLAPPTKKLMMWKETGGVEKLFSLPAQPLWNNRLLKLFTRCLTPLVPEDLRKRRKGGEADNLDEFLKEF
In words: pull-down.

Assay [2] deals with T1, SA2-SCC1 complex (SA2 80-1060 in …). In words: peptide or protein array.
Assay [3] has the same target. In words: ITC. On the technique in general: ITC needs no label: the signal is the heat of the interaction.

B1: WAPL residues 1-600 (domain or fragment)
chain: MTSRFGKTYSRKGGNGSSKFDEVFSNKRTTLSTKWGETTFMAKLGQKRPNFKPDIQEIPKKPKVEEESTGDPFGFDSDDESLPVSSKNLAQVKCSSYSESSEAAQLEEVTSVLEANSKISHVVVEDTVVSDKCFPLEDTLLGKEKSTNRIVEDDASISSCNKLITSDKVENFHEEHEKNSHHIHKNADDSTKKPNAETTVASEIKETNDTWNSQFGKRPESPSEISPIKGSVRTGLFEWDNDFEDIRSEDCILSLDSDPLLEMKDDDFKNRLENLNEAIEEDIVQSVLRPTNCRTYCRANKTKSSQGASNFDKLMDGTSQALAKANSESSKDGLNQAKKGGVSCGTSFRGTVGRTRDYTVLHPSCLSVCNVTIQDTMERSMDEFTASTPADLGEAGRLRKKADIATSKTTTRFRPSNTKSKKDVKLEFFGFEDHETGGDEGGSGSSNYKIKYFGFDDLSESEDDEDDDCQVERKTSKKRTKTAPSPSLQPPPESNDNSQDSQSGTNNAENLDFTEDLPGVPESVKKPINKQGDKSKENTRKIFSGPKRSPTKAVYNARHWNHPDSEELPGPPVVKPQSVTVRLSSKEPNQKDDGVFKAPA
For B1, in assay [1], the binding result is recorded as “binds”.
With DVSVFDFEEEQ [CTCF array peptide Y226F (position 2)], binding in assay [2] was put at a Kd of 1.6 µM.
In the case of FTRAYDFETED [SYCP3 array peptide from residue 21 (position 17)], the affinity in assay [2], expressed as Kd, was 1.96 µM.
For the molecule KLEFFGFEDHE [WAPL array peptide from residue 425 (position 7)], in assay [2], the dissociation constant (Kd) – broadly, the free concentration of one partner at which half of the binding sites on the other are occupied at equilibrium, for simple one-to-one binding – was 12.4 µM.
Still for that read-out and setting: next, KIKYFGFDDLS [WAPL array peptide from residue 450 (position 8)]: 2.17 µM.
Consider KLSAFNFLDGS [yeast WAPL array peptide from residue 108 (position 10)], for which binding in assay [2] was put at a Kd of 10.7 µM.
On the same count and under the same terms, next, TGDPFGFDSDD [WAPL array peptide from residue 70 (position 6)]: 5.9 µM; RKMAFEFDINS [SYCP1 array peptide from residue 882 (position 15)]: 6.71 µM.
NYKIKYFGFDDLSESE [WAPL peptide 447-462 (third FGF motif only)]: in assay [3], the equilibrium dissociation constant (Kd) was 78.7 µM; the dH is -6.81 kcal/mol; the stoichiometry N – broadly, the number of molecules, sites or subunits per partner or assembly – was 1.
